Tests used:
[1] = test system: E. coli BK2118 (tag, alkA); assay: MMS complementation assay; format: cell-based, Escherichia coli; details: pUC18 constructs, 1 mM to 5 mM MMS plates, 2 days, 37°C
[2] = Thermal denaturation by circular dichroism; format: physicochemical; details: thermal denaturation curves, CD
Experimental: Secondary structure and temperature stability of recombinant proteins were determined by recording circular dichroism spectra (CD) on a Jasco J-815 spectropolarimetar (JASCO, Easton, MD, USA) with automatic temperature control according to Jajčanin-Jozić et al.. Analysis of protein secondary structure from CD spectra was performed by using the CDSSTR program at the DICHROWEB site (http://public-1.cryst.bbk.ac.uk/cdweb/html). Protein concentrations were determined by the Bradford method.

B1: PgDPP III: full-length dipeptidyl peptidase III from P. gingivalis W83 (PG_0317), 886 aa (protein)
chain: MTKETTQHRSGERIARFADIEVLSYRADLFGTLTPKQRMLCYHLSEAALRGRDITTIQNCRYNLWVRSLMERIYTHLSKSERTDDFALLEEYLFCIWFANGIHHHYSGAKFIARFSPGFLRAALREAGVELEPEEQVLLERVLYDTDFLPKQTEQSGEEDIIKASSVNFYAPGITRAEAESHYKNLIEALPENEKSCPPSFGLNTRLIRSTSGELKDEVCCIDGLYGPAIEAVVASLEAAIPYTENEEQAACIRLLCDYYRTGDIRLYDRFCIRWVENNRTRIDFINGFTEVYADPIGIHGSWEGLVHMQDEEAGRRTRIISEHAGWFEAHSPIDARFRKKNPHGISATVVNVLTIAGDSYPATPIGINLPNADWIRAEHGSKSVTIDNITDAYNHAARGTGLYEEFIPDEEVRRHVELHADLTDSLHTDLHECLGHGSGQLLPGVPGDALGEHASTLEETRADLFALYFLADPKMIELGLLTDPDAYKANYYKYMLNGLMTQLVRIKRGEEIEEAHMRNRALIARYVLEHAERPGAMSLVCEEGKTALVIKDYEAVRAIIAGLLTEVQRIKSEGDYTAGKALVERYAVHVDPLLHEEVLTRYAKLDIAPYKGFVNPRLRPVYNSEGRLTDATIEYTEGYAEQMLRYSAEYSFLPTDSPLLQEARRLRSHLRRAMDGVLSASMREKGLHYGINFGVTREHLLRLARTADASAPLADYLWRRDVRETKILATMIFPAEELTHEQATRLLREADNVELREQLTANLLERMPEAIRSIGRWIESKETTPDMMTGVLTLAARLFTRGIFPEDVPAEKLLTLAILHLSDEEQKAELRRASALLLKRYGRGSAERTKKVLCLLPESSQDTAPVLYELCEDIRFELDFYPKDE
modifications: left off: His tag, C-terminal, state not stated
[1]
  rescue of alkylation-sensitive phenotype / alkylation repair function (in words): absence of any alkylation repair function
[1]; listed as full length PgDPP III
  rescue of alkylation-sensitive phenotype / alkylation repair function (in words): does not possess alkylation repair function
[2]
  Tm: 50 °C

From paper PMC5708649, “A novel Porphyromonas gingivalis enzyme: An atypical dipeptidyl peptidase III with an ARM repeat domain” (PLoS ONE, 2017)
